Measured values taken from US10495630B2, “Methods for the determination of compounds or compositions for the treatment of lipofuscin related diseases and compounds or compositions” (KATAIRO GMBH, priority 2014, dated 2019).

Test system: Abca4 (−/−) mice
Assay: A2E concentration in eyes of Abca4 (−/−) mice after intravitreal injection, HPLCMSMS
Assay type: in vivo
Settings: redox active and chelating protein; intravitreal 2 μl of 20 mg/ml; one week after injection
Description: […] […] The left eye was not treated and maintained as a control. Untreated eyes of age-matched mice lacking the Abca4 transporter were an additional control.
The concentration in each treated eye was then expressed as a percentage of the average concentration in all untreated eyes in the mice of the same age.
The left eye was not treated and maintained as a control. Untreated eyes of age-matched mice lacking the Abca4 transporter were an additional control.
The left eye was not treated and maintained as a control. Untreated eyes of age-matched mice lacking the Abca4 transporter were an additional control. […] Tryptophan is capable of absorbing and re-radiating light energy, as is riboflavin.
Water solutions were diluted 1:3 with acetonitrile and then sealed in vials for injection. 6 μL of the water acetonitrile solutions were injected onto a 2×50 mm Phenyl derived HPLC column (3 μm) and eluted with a gradient from 20% acetonitrile to 100% acetonitrile over 4 minutes at a flow rate of 500 μL/minute.

B1: Lactoferrin: protein capable of binding iron with high affinity (protein, UniProt P02788 20-710, looked up)
Lactotransferrin: GRRRSVQWCAVSQPEATKCFQWQRNMRKVRGPPVSCIKRDSPIQCIQAIAENRADAVTLDGGFIYEAGLAPYKLRPVAAEVYGTERQPRTHYYAVAVVKKGGSFQLNELQGLKSCHTGLRRTAGWNVPIGTLRPFLNWTGPPEPIEAAVARFFSASCVPGADKGQFPNLCRLCAGTGENKCAFSSQEPYFSYSGAFKCLRDGAGDVAFIRESTVFEDLSDEAERDEYELLCPDNTRKPVDKFKDCHLARVPSHAVVARSVNGKEDAIWNLLRQAQEKFGKDKSPKFQLFGSPSGQKDLLFKDSAIGFSRVPPRIDSGLYLGSGYFTAIQNLRKSEEEVAARRARVVWCAVGEQELRKCNQWSGLSEGSVTCSSASTTEDCIALVLKGEADAMSLDGGYVYTAGKCGLVPVLAENYKSQQSSDPDPNCVDRPVEGYLAVAVVRRSDTSLTWNSVKGKKSCHTAVDRTAGWNIPMGLLFNQTGSCKFDEYFSQSCAPGSDPRSNLCALCIGDEQGENKCVPNSNERYYGYTGAFRCLAENAGDVAFVKDVTVLQNTDGNNNEAWAKDLKLADFALLCLDGKRKPVTEARSCHLAMAPNHAVVSRMDKVERLKQVLLHQQAKFGRNGSDCPDKFCLFQSETKNLLFNDNTECLARLHGKTTYEKYLGPQYVAGITNLKKCSTSPLLEACEFLRK
- % of A2E relative to age matched untreated: 63%
- Concentration A2E (μM) in the treated eye: 20 µM
